Source: patent publication US20240209044

Experiments:
[1] = system: ZAP, zeta activating peptide, the PKCzeta uORF-encoded peptide
[2] = system: T1, ZIP, zeta inhibitory peptide, the pseudo-substrate peptide of the PKCzeta regulatory domain
T1 sequence: SIYRRGARRWRKL

| Substance | phosphorylation of MBP by PKC isoforms (32P-γATP in vitro kinase assay) [1] | kinase activity (phosphorylation of MBP, 32P-γ-ATP in vitro kinase assay, dose series of peptide) [1] | kinase activity (phosphorylation of MBP, 32P-γ-ATP in vitro kinase assay, dose series of peptide) [2] |
| --- | --- | --- | --- |
| PKCdelta, HA-tagged, immunoprecipitated from HEK293T lysate | enhanced the phosphorylation of PKC isoforms of the novel PKC sub-family of PKCzeta, PKCdelta and PKCepsilon | – | – |
| PKCgamma, HA-tagged, immunoprecipitated from HEK293T lysate | the peptide had no effect on the phosphorylation of MBP by the PKC isoforms PKCeta (PKCη), PKCtheta (PKCθ), PKCgamma (PKCγ), and PKCalpha (PKCα) | – | – |
| PKMzeta, truncated version of PKCzeta containing only the kinase domain | – | the ZAP peptide activates the kinase activity of both PKCzeta and PKMzeta | the known PS ZIP peptide inhibits their activity |
